The values below come from article doi:10.1101/2025.10.13.682238.

The experiment addresses GST tag (glutathione S-transferase affinity tag, free in the ATAD2B sample). The experiment is described as follows: SEC; Superdex 200 Increase 10/300 GL on an ÄktaPrime system, ATAD2B sample from E. coli compared with a molecular weight standard mixture (thyroglobulin 670 kDa, ovalbumin 44 kDa). A general note: In gel filtration, larger molecules generally elute earlier.

GST tag (glutathione S-transferase affinity tag, free in the ATAD2B sample), sequence (P08515 2-218): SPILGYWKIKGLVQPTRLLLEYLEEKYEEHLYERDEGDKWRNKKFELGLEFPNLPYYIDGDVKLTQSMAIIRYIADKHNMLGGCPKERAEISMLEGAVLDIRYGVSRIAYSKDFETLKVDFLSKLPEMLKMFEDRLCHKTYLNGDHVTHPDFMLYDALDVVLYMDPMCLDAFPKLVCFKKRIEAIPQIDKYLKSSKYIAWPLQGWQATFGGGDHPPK

One may read the stoichiometry N as the number of molecules, sites or subunits per partner or assembly. In the case of “GST tag (glutathione S-transferase affinity tag, free in the ATAD2B sample) (natural protein)”, the stoichiometry N was 2.
